{"source": "paper PMC8557468", "about": "“Evolution-Based Protein Engineering for Antifungal Peptide Improvement” (Molecular Biology and Evolution, 2021)", "key": {"mouse erythrocytes": {"test_system": "mouse erythrocytes", "assay": "Hemolytic assay", "assay_type": "cell-based", "conditions": "50 μM peptide, 37 °C, 15 min, absorbance 570 nm; n = 3", "protocol": "Hemolysis of mouse erythrocytes by peptides was assayed according to the standard method ([Gao et al. 2009]). In brief, the cells were incubated with various concentrations of peptides (6.25, 12.5, 25, or 50 μM) at 37 °C for 15 min. Absorbance was measured at 570 nm with the SpectraMax i3x Multi-Mode microplate reader (Molecular Devices). The percentage of hemolysis was determined as (Apep−Ablank)/(Atot−Ablank)×100. Ablank and Apep were evaluated in the absence or presence of peptides and 100% hemolysis (Atot) was obtained in the presence of 1% Triton X-100. Meucin-18 ([Gao et al. 2009]) was used positive control."}, "[1]": {"conditions": "n = 3", "protocol": "To assess serum stability, peptides were incubated in fresh mouse serum for 0, 12, and 24 h at 37 °C, respectively. Residual activities were measured by inhibition zone assays against C. albicans B16. For thermal stability assay, E15K was incubated at 50 °C for 1–5 days, 80 °C or 100 °C for 5 min. CD analysis and inhibition zone assay were used to evaluate a potential impact of heating on the structure and function of the peptide."}}, "note": "Positions of bridges follow the written chain, without caps; N, C: chain ends. No end group written: not given here."}
{"sequence": "DVKSGHYKGPCYHDKNCNGVCRDEGYKSGHCSRWGGACWCDT (disulfide 11-31, 17-38, 21-40) [E15K]", "values": [{"measurement": "hemolysis on mouse erythrocytes", "setting": "mouse erythrocytes", "result": "no detectable hemolysis"}, {"measurement": "serum stability (residual antifungal activity)", "setting": "[1]; fresh mouse serum, 37 °C, 0, 12 and 24 h, residual activity by inhibition zone against C. albicans B16, 1.0 nmol", "result": "retained its complete antifungal activity"}, {"measurement": "thermal stability (activity and structure after heating)", "setting": "[1]; in water at 50 °C for 1–5 days or 80–100 °C for 5 min, CD spectra and inhibition zone assay", "result": "its activity and structure were not obviously changed"}]}
